Here are results for nine molecules from patent US20120316071A1 (published 2012).

In assay [1] the target is T1, rHuman Erythropoietin R/Fc Chimera, CF (R&D Systems Cat#963-ER) (human, UniProt P19235 25-250).
T1 construct: Bought from R&D Systems; also called EPO R; EPO R/Fc; Fc part of the bought chimera not given
T1 sequence (looked up): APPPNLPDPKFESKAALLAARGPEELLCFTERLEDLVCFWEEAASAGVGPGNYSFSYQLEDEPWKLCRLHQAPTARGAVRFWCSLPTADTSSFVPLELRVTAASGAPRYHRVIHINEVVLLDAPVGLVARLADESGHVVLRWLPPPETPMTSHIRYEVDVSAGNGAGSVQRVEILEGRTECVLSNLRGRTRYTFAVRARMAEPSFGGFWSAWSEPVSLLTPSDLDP
Briefly: ECL multispot (MSD) binding assay; antigen spotted on plate, Fab in solution, Ru-labelled anti-kappa detection.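 Also: purified Fab in 1% BSA TBST incubated 1 h at 20 °C with shaking, signal compared with each well's blank, signal/blank ratio of 4 or above counted as binder.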

Assay [2] concerns the target T2, rHuman P-Cadherin/Fc Chimera, CF (R&D Systems Cat#861-PC) (human, UniProt P22223 108-654).
T2 construct: Bought from R&D Systems; Fc part of the bought chimera not given
The assay is described as above.

The target of assay [3] is T3, rHuman IGF-1 sR, CF (R&D Systems Cat#391-GR) (human, UniProt P08069 31-932).
T3 construct: Bought from R&D Systems as a soluble receptor; also called insulin-like growth factor-1 soluble receptor
Described as above.

The target of assay [4] is T4, rHuman Notch-1/Fc Chimera, CF (R&D Systems Cat#3647-TK) (human, UniProt P46531 19-526).
T4 construct: Bought from R&D Systems; Fc part of the bought chimera not given
Described as above.

Assay [5] has as its target T5, rHuman EGF R/Fc Chimera, CF (R&D Systems Cat#344-ER) (human, UniProt P00533 25-645).
T5 construct: Bought from R&D Systems; also called epidermal growth factor receptor; Fc part of the bought chimera not given
Described as above.

Assay [6] deals with T6, rHuman CD44/Fc Chimera, CF (R&D Systems Cat#3660-CD) (human, UniProt P16070 21-220).
T6 construct: Bought from R&D Systems; Fc part of the bought chimera not given
The description is as above.

For assay [7], the target named is T7, Recombinant Human DLL4 (R&D Systems Cat#1506-D4/CF) (human, UniProt Q9NR61 27-524).
T7 construct: Bought from R&D Systems; also called delta-like protein 4; rHuman DLL4
The description is as above.

For assay [8], the target named is T8, rHuman HGF R/c-MET/Fc Chimera, CF (R&D Systems Cat#358-MT/CF) (human, UniProt P08581 25-932).
T8 construct: Bought from R&D Systems; also called HGF R/Fc; hepatocyte growth factor receptor; Fc part of the bought chimera not given
T8 sequence (P08581 25-932, change not shown): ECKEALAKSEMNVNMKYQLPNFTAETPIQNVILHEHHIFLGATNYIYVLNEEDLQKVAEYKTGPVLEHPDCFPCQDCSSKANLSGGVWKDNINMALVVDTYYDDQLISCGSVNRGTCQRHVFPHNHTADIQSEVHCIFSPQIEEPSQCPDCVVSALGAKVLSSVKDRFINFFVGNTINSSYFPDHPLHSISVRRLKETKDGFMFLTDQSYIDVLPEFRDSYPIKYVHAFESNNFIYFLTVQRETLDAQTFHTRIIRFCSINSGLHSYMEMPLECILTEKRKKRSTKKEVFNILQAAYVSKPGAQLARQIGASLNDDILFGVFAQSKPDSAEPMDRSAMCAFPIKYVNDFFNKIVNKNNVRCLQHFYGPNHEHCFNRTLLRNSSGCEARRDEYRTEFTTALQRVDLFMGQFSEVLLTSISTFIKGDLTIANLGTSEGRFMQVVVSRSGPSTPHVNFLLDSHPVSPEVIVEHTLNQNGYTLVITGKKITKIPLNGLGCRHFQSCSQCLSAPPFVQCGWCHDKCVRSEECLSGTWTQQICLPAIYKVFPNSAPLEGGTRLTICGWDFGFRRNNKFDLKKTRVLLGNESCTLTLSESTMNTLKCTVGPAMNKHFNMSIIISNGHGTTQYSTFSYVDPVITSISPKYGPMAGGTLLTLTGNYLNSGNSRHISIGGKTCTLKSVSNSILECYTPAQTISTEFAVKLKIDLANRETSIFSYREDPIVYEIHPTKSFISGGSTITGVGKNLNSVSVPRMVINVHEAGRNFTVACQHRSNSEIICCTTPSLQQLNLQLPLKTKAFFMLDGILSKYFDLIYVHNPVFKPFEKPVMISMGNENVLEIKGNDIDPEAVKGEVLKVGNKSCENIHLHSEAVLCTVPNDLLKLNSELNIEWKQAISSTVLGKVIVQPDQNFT
The assay is described as above.

The target in assay [9] is T9, rHuman ErbB2/Fc Chimera, CF (R&D Systems Cat#1129-ER) (human, UniProt P04626 23-652).
T9 construct: Bought from R&D Systems; also called human epidermal growth factor 2 receptor; Fc part of the bought chimera not given
The description is as above.

For assay [10], the target named is T10, Recombinant Human DLL4 (delta-like protein 4) (human, UniProt Q9NR61 27-524).
T10 construct: Bought recombinant protein (R&D Systems Cat#1506-D4/CF); also called rHuman DLL4; Delta-like 4
Nature of the assay: ECL (MSD) multispot binding assay, DLL4 immobilized, Fab in solution.

Assay [11] deals with T10, Recombinant Human DLL4 (delta-like …). Nature of the assay: ELISA, DLL4 coated on plate, Fab in solution, absorbance at 450 nm.
For assay [12], the target named is T11, rHuman Erythropoietin R/Fc Chimera (human, UniProt P19235 25-250).
T11 construct: also called EPO R; EPO R/Fc
T11 sequence (looked up): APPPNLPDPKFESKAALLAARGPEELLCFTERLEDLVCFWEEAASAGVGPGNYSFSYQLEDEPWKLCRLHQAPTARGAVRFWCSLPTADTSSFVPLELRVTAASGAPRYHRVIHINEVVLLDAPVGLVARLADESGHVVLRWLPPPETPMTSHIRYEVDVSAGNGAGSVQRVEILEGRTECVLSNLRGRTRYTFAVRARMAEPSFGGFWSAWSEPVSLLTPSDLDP
Nature of the assay: ECL multispot (MSD) binding assay; antigen spotted on plate, Fab in solution.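 Also: purified Fab bound for 1 h at 20 °C, detected with a TAG-labelled antibody, electrochemiluminescence compared with each well's blank, signal-to-blank ratio of at least 4 scored as hit.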

Assay [13] has as its target T12, rHuman P-Cadherin/Fc Chimera (human, UniProt P22223 108-654).
T12 construct: Bought from R&D Systems (Cat#861-PC)
The assay is described as above.

Another assay deals with rHuman CD44/Fc Chimera (human, UniProt P16070 21-220). Described as above.
For another assay, the target named is rHuman EGF R/Fc Chimera (human, UniProt P00533 25-645). The assay is described as above.
Another assay deals with rHuman ErbB2/Fc Chimera (human, UniProt P04626 23-652). The description is as above.
Assay [14] concerns the target T13, rHuman HGF R/c-MET/Fc Chimera (human, UniProt P08581 25-932).
T13 construct: also called HGF R/Fc
The description is as above.

Assay [15] addresses T14, rHuman Notch-1/Fc Chimera (human, UniProt P46531 19-526).
T14 construct: Bought from R&D Systems (Cat#3647-TK)
The assay is described as above.

The target of assay [16] is rHuman IGF-1 sR (insulin-like growth factor-1 soluble receptor) (human, UniProt P08069 31-932). The assay is described as above.

T13 sequence (P08581 25-932, change not shown): as the sequence (P08581 25-932, change not shown) above

B1: Fab VH1-46_IGHD6-6*01_IGHJ1*01 S102A/S103P/S104F/H111F S31A & L6_IGKJ1*01 (Fab, V domains shown)
VH: QVQLVQSGAEVKKPGASVKVSCKASGYTFTAYYMHWVRQAPGQGLEWMGIINPSGGSTSYAQKFQGRVTMTRDTSTSTVYMELSSLRSEDTAVYYCAREEYAPFSAEYFQFWGQGTLVTVSS
VL: not shown
notes: Tested as a Fab made in E. coli; The heavy chain vector (Plasmid A) adds CH1 with His6 and Flag tags; The light chain vector (Plasmid C) adds kappa CL; also called APFF S31A
Regarding B1, the ECL signal in assay [1] is 507; in assay [2] it was 262; in assay [3], 268; in assay [4] it was 427; in assay [5], 377; in [6], 235. Also, the ECL signal in assay [7] came to 176000; in [8], 358; in assay [9], 253.

B2: Fab VH1-46_IGHD6-6*01_IGHJ1*01 S102A/S103P/S104F/H111F (H:APFF) & L6_IGKJ1*01 S76E (Fab, V domains shown)
VH: QVQLVQSGAEVKKPGASVKVSCKASGYTFTSYYMHWVRQAPGQGLEWMGIINPSGGSTSYAQKFQGRVTMTRDTSTSTVYMELSSLRSEDTAVYYCAREEYAPFSAEYFQFWGQGTLVTVSS
VL: EIVLTQSPATLSLSPGERATLSCRASQSVSSYLAWYQQKPGQAPRLLIYDASNRATGIPARFSGSGSGTDFTLTIESLEPEDFAVYYCQQRSNWPPWTFGQGTKVEIKR
notes: Tested as Fab expressed in E. coli; VH was cloned into Plasmid A (CH1 constant region, His6 and Flag tags) and the kappa VL into Plasmid C (kappa CL)
For the molecule B2, the “ECL Signal/Noise” value in assay [10] worked out at 218. Also, in [11], the “ELISA (Signal-Noise)” value came out at 0.36.

B3: Fab VH1-46_IGHD6-6*01_IGHJ1*01 S102A/S103P/S104F/H111F T30A & L6_IGKJ1*01 (Fab, V domains shown)
VH: QVQLVQSGAEVKKPGASVKVSCKASGYTFASYYMHWVRQAPGQGLEWMGIINPSGGSTSYAQKFQGRVTMTRDTSTSTVYMELSSLRSEDTAVYYCAREEYAPFSAEYFQFWGQGTLVTVSS
VL: not shown
notes: Tested as a Fab made in E. coli; The heavy chain vector (Plasmid A) adds CH1 with His6 and Flag tags; The light chain vector (Plasmid C) adds kappa CL; also called APFF T30A
Turning to B3, the ECL signal in assay [1] turned out to be 479; in [2], 337; in assay [3], 343; in assay [4], 368; in assay [5], 351; in assay [6] it was 396. Also, the results for the ECL signal in [7], in assay [8] and in assay [9] were 178000, 353 and 408, respectively.

B4: Fab VH1-46_IGHD6-6*01_IGHJ1*01 S102A/S103P/S104F/H111F T28A & L6_IGKJ1*01 (Fab, V domains shown)
VH: QVQLVQSGAEVKKPGASVKVSCKASGYAFTSYYMHWVRQAPGQGLEWMGIINPSGGSTSYAQKFQGRVTMTRDTSTSTVYMELSSLRSEDTAVYYCAREEYAPFSAEYFQFWGQGTLVTVSS
VL: not shown
notes: Tested as a Fab made in E. coli; The heavy chain vector (Plasmid A) adds CH1 with His6 and Flag tags; The light chain vector (Plasmid C) adds kappa CL; also called APFF T28A
B4: the ECL signal came to 477 in assay [1]; 477 in assay [2]; 377 in [3]; 478 in [4]; 329 in assay [5]; 497 in [6]. Moreover, the ECL signal in [7] came out at 181000; in assay [8] it was 353; in assay [9] it was 316.

B5: Fab VH1-46_IGHD6-6*01_IGHJ1*01 S102A/S103P/S104F/H111F (APFF) & L6_IGKJ1*01 S92M (Fab, V domains shown)
VH: QVQLVQSGAEVKKPGASVKVSCKASGYTFTSYYMHWVRQAPGQGLEWMGIINPSGGSTSYAQKFQGRVTMTRDTSTSTVYMELSSLRSEDTAVYYCAREEYAPFSAEYFQFWGQGTLVTVSS
VL: EIVLTQSPATLSLSPGERATLSCRASQSVSSYLAWYQQKPGQAPRLLIYDASNRATGIPARFSGSGSGTDFTLTISSLEPEDFAVYYCQQRMNWPPWTFGQGTKVEIKR
notes: Tested as Fab (CH1 with His6/Flag tags from Plasmid A; kappa CL from Plasmid C); also called APFF / S92M
As for B5, the ECL signal in assay [12] was 340; in assay [13], 328; with rHuman CD44/Fc Chimera it was 304; in the assay with rHuman EGF R/Fc Chimera, 367; with rHuman ErbB2/Fc Chimera it was 301; in [14], 346. Further, the ECL signal was found to be 385 in [15] and 271 in [16].

B6: Fab VH1-46_IGHD6-6*01_IGHJ1*01 S102A/S103P/S104F/H111F (APFF) & L6_IGKJ1*01 S92V (Fab, V domains shown)
VH: QVQLVQSGAEVKKPGASVKVSCKASGYTFTSYYMHWVRQAPGQGLEWMGIINPSGGSTSYAQKFQGRVTMTRDTSTSTVYMELSSLRSEDTAVYYCAREEYAPFSAEYFQFWGQGTLVTVSS
VL: EIVLTQSPATLSLSPGERATLSCRASQSVSSYLAWYQQKPGQAPRLLIYDASNRATGIPARFSGSGSGTDFTLTISSLEPEDFAVYYCQQRVNWPPWTFGQGTKVEIKR
notes: Tested as Fab (CH1 with His6/Flag tags from Plasmid A; kappa CL from Plasmid C); also called APFF / S92V
Consider B6, for which the ECL signal in assay [12] is 368; in [13], 390; in the assay with rHuman CD44/Fc Chimera, 331; with rHuman EGF R/Fc Chimera, 305; in the assay with rHuman ErbB2/Fc Chimera, 246; in assay [14], 288. In addition, the figures for the ECL signal in assay [15] and in assay [16] were 347 and 237, respectively.

B7: Fab VH1-46_IGHD6-6*01_IGHJ1*01 S102A/S103P/S104F/H111F (H:APFF) & L6_IGKJ1*01 S76N (Fab, V domains shown)
VH: QVQLVQSGAEVKKPGASVKVSCKASGYTFTSYYMHWVRQAPGQGLEWMGIINPSGGSTSYAQKFQGRVTMTRDTSTSTVYMELSSLRSEDTAVYYCAREEYAPFSAEYFQFWGQGTLVTVSS
VL: EIVLTQSPATLSLSPGERATLSCRASQSVSSYLAWYQQKPGQAPRLLIYDASNRATGIPARFSGSGSGTDFTLTINSLEPEDFAVYYCQQRSNWPPWTFGQGTKVEIKR
notes: as for B2
On to B7, for which, in [10], the “ECL Signal/Noise” value was determined as 118. Further, the “ELISA (Signal-Noise)” value in [11] came out at 0.28.

B8: Fab VH1-46_IGHD6-6*01_IGHJ1*01 S102A/S103P/S104F/H111F Y33A & L6_IGKJ1*01 (Fab, V domains shown)
VH: QVQLVQSGAEVKKPGASVKVSCKASGYTFTSYAMHWVRQAPGQGLEWMGIINPSGGSTSYAQKFQGRVTMTRDTSTSTVYMELSSLRSEDTAVYYCAREEYAPFSAEYFQFWGQGTLVTVSS
VL: not shown
notes: Tested as a Fab made in E. coli; The heavy chain vector (Plasmid A) adds CH1 with His6 and Flag tags; The light chain vector (Plasmid C) adds kappa CL; also called APFF Y33A
On to B8, for which the ECL signal in assay [1] was 430; in [2], 178; in assay [3] it was 227; in [4] it was 334; in assay [5], 281; in [6], 290. The ECL signal in [7] is 59500; in [8], 248; in [9], 298.

B9: Fab VH1-46_IGHD6-6*01_IGHJ1*01 S102A/S103P/S104F/H111F (APFF) & L6_IGKJ1*01 S92N (Fab, V domains shown)
VH: QVQLVQSGAEVKKPGASVKVSCKASGYTFTSYYMHWVRQAPGQGLEWMGIINPSGGSTSYAQKFQGRVTMTRDTSTSTVYMELSSLRSEDTAVYYCAREEYAPFSAEYFQFWGQGTLVTVSS
VL: EIVLTQSPATLSLSPGERATLSCRASQSVSSYLAWYQQKPGQAPRLLIYDASNRATGIPARFSGSGSGTDFTLTISSLEPEDFAVYYCQQRNNWPPWTFGQGTKVEIKR
notes: Tested as Fab (CH1 with His6/Flag tags from Plasmid A; kappa CL from Plasmid C); also called APFF / S92N
Regarding B9, the ECL signal stood at 314 in assay [12]; 271 in [13]; 336 with rHuman CD44/Fc Chimera; 293 in the assay with rHuman EGF R/Fc Chimera; 242 with rHuman ErbB2/Fc Chimera; 243 in assay [14]. In addition, the ECL signal in assay [15] came out at 407; in assay [16] it was 312.
